Data published in article PMC7641127, “MCL1 binds and negatively regulates the transcriptional function of tumor suppressor p73” (Cell Death & Disease, 2020).
No end group written: not given here.

Biological target: T1, recombinant MCL1 (human, UniProt Q07820 1-350)
T1 construct: MCL1, human; Uniformly 15N-labelled for NMR; also called 15N MCL1; source: E. coli BL21 (DE3), purified (nickel chromatography, gel filtration)
Test: fluorescence polarisation; competitive FPA: 50 nM recombinant MCL1, 10 nM F-BAK, titration of unlabeled p73 peptide or p73DBD, 1× PBS pH 7.4
Details: both partners purified

T1 sequence (Q07820 whole entry): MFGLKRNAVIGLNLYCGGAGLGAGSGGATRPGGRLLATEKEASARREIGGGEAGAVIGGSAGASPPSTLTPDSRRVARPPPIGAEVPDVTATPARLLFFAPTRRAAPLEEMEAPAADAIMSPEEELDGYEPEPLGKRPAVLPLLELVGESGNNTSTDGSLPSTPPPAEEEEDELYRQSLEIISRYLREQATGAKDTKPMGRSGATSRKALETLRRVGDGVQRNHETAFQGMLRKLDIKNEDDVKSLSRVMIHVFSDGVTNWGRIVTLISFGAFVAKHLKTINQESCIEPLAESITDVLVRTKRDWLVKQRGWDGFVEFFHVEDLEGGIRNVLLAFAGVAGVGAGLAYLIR

Row | Binder | IC50
1 | DEDTYYLQVRG-NH2 [p73TD-derived peptide β1] | > 10 µM
2 | PQPLVDSYRQQQQLLQR [p73TD-derived peptide α2] | > 10 µM
